Numbering of substitutions follows the chain as printed.
T1: human sugar chain-deficient CD27 expressed on Lec8 cells (human, UniProt P26842 20-260, O-linked sugar chains to which galactose is not bound, from expression in Lec8 cells)
T1 construct: CD27/Lec8-4 and CD27/Lec8-M19 are two clones that carry the same protein; also called CD27/Lec8-4; CD27/Lec8-M19
T1 sequence: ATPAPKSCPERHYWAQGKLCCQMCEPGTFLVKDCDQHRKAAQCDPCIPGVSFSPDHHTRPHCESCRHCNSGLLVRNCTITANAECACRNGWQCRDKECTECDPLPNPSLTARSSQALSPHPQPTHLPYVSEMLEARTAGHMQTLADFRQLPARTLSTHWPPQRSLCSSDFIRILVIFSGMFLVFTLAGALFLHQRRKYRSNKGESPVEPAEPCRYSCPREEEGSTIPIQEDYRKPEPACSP

B1: anti-sugar chain-deficient CD27 chimeric antibody chimeric KM4031 (antibody, human IgG1, V domains shown)
VH: EVQLVESGGGLVEPGRSMKLSCAASGFTFSDYGMAWVRQAPTKGLEWVATITYDGSIYYRDSVKGRFTISRDNAKSTLYLQMNSLRSEDTATYYCTRDPGLYYFDFWGQGVMVTVSS
VL: DIVMTQSPSSLAVSAGETVTLNCQSSQSLLYSGNQKNYLAWYQQKPGQSPKLLIYWASTRQSGVPDRFIGSGSGTDFTLTISSVQAEDLAIYYCQQYYNTPRTFGGGTKLELK
notes: made in FUT8 knockout CHO cells, no core fucose; also called chimeric KM403I
B2: anti-sugar chain-deficient CD27 chimeric antibody chimeric KM4030 (antibody, human IgG1, V domains shown)
VH: EVQLVESGGGLVQPGRSLKLSCVASGFTFNNYWMTWIRQAPGKGLEWIASITNSGGSTYYPDSVKGRFTISRDNAKGTLYLQMNSLRSEDTATYYCTRDVNTYYGYNALFDYWGQGVMVTVSS
VL: DIQMTQSPSVLSASVGDRVTLNCKASQNINEYLNWYQQKLGEAPKLLIYNTNNLQTGIPSRFSGSGSGTDFTLTISSLQPEDFAAYFCFQHNSWPYTFGAGTKLELK
notes: made in FUT8 knockout CHO cells, no core fucose; also called anti-sugar chain-deficient CD27 chimeric antibody KM4030
B3: anti-sugar chain-deficient CD27 humanized antibody HV5LV0 (antibody, human IgG1, V domains shown)
VH: B2 VH with Q13K, K19R, V23A, T78S, S88A, T93V, Q115L, V117T, M118L
VL: B2 VL with V10S, L21I, N22T, L40P, E42K, I58V, A85T, F87Y, A100Q, L106I
B4: anti-sugar chain-deficient CD27 humanized antibody HV7LV0 (antibody, human IgG1, V domains shown)
VH: B2 VH with Q13K, K19R, V23A, T78S, S88A, Q115L, M118L
VL: B2 VL with V10S, L21I, N22T, L40P, E42K, I58V, A85T, F87Y, A100Q, L106I
B5: anti-sugar chain-deficient CD27 humanized antibody HV0LV0 (antibody, human IgG1, V domains shown)
VH: EVQLVESGGGLVKPGRSLRLSCAASGFTFSNYWMTWIRQAPGKGLEWVSSITNSGGSTYYPDSVKGRFTISRDNAKNSLYLQMNSLRAEDTAVYYCARDVNTYYGYNALFDYWGLGTLVTVSS
VL: B2 VL with V10S, L21I, N22T, L40P, E42K, I58V, A85T, F87Y, A100Q, L106I

Legend:
[1] = molecular target: T2, Lec8-produced CD27-Fc (human sugar chain-deficient CD27-Fc) (human, O-linked sugar chains to which galactose is not bound (Tn antigen), from production in Lec8 cells); experiment: SPR, Biacore T100; Lec8-derived CD27-Fc amine-coupled to CM5 chip, antibody as analyte, single-cycle kinetics, bivalent analyte model
T2 construct: also called Lec8-derived CD27-Fc
Protocol: In order to kinetically analyze the binding activity of the anti-sugar chain-deficient CD27 chimeric antibodies chimeric KM4026, chimeric KM4028, and chimeric KM4030 to the human sugar chain-deficient CD27-Fc, the binding activity was measured by surface plasmon resonance method (SPR method). All of the following manipulations were carried out using Biacore T100 (manufactured by GE Healthcare Bio-Sciences).
The Lec8-derived CD27-Fc obtained in Example 1(7) was immobilized on a CM5 sensor chip (manufactured by GE Healthcare Bio-Sciences) by amine coupling. Assay samples (chimeric KM4026, chimeric KM4028, chimeric KM4030 and chimeric KM4031), which were serially 3-fold diluted from 9 μg/mL to give 5 different concentrations, were sequentially and continuously added to the CD27-Fc-immobilized chip in order of increasing concentrations, in accordance with an automated program (Single Kinetix), followed by measurement.
Using the analysis software, Biacore T100 Evaluation software (manufactured by Biacore) installed on the apparatus, the analysis was carried out using Bivalent Analyte Model to calculate thereby an association rate constant ka and a dissociation rate constant kd of each antibody for the human sugar chain-deficient CD27-Fc.

[2] = molecular target: T2, Lec8-produced CD27-Fc (human sugar …); experiment: SPR, BIACORE T100, as in Example 7(1): Lec8-derived CD27-Fc on CM5 chip, antibody as analyte, bivalent analyte model
Protocol: In order to analyze binding activity of anti-sugar chain-deficient CD27 humanized antibody to human sugar chain-deficient CD27 reaction kinetically, it was measured in the same manner as in Example 7(1) using BIACORE T100 (manufactured by BIACORE).

[3] = molecular target: T1, human sugar chain-deficient CD27 …; experiment: flow cytometry (FCM) on CD27/Lec8-4 cells [A) (a]
Protocol: The CD27/DG44-4, CD27/Lec8-4 and Lec8 cells constructed in the same manner as in Example 2 were used as assay cells. The CD27/DG44-4 subcultured in an HT-medium supplemented with 500 μg/mL of G418, and the CD27/Lec8-4 subcultured in an HT-medium supplemented with 50 nmol/L of MTX and 500 μg/mL of G418 were peeled off using a 0.02% EDTA solution, and then washed with PBS.
After the reaction was complete, centrifugation was carried out twice with PBS, and ALEXA Fluoro 488-labeled anti-human immunoglobulin G(H+L), ALEXA Fluoro 488-labeled anti-mouse immunoglobulin G(H+L) or ALEXA Fluoro 488-labeled anti-human immunoglobulin M(μ) as a secondary antibody was added at a concentration of 50 μL/well, followed by reaction at ice temperature under shading for 30 minutes.
Again, centrifugation was repeated twice using PBS, and the cells were washed and suspended in 500 μL of 1% BSA-PBS. The fluorescence of 510 to 530 nm excited with a 488 nm argon laser was measured by a flow cytometer (manufactured by Beckman Coulter, Cytomics FC500 MPL).

[4] = molecular target: T1, human sugar chain-deficient CD27 …; experiment: flow cytometry (FCM) on CD27/Lec8-M19 cells [A]
Protocol: Reaction specificity of the anti-sugar chain-deficient CD27 humanized antibody was measured in the same manner as in Example 7(2). Regarding the cell lines, the CD27/DG44-4 cell and CD27/Lec8-M19 cell having almost the same antigen expression quantity, prepared by the same method of Example 2, were used as assaying cells.

[5] = molecular target: T3, sugar chain-deficient cynomolgus CD27 (C-terminal His tag) expressed on Lec8 cells (cynomolgus); experiment: flow cytometry (FCM) on cynomolgus CD27/Lec8 cells (Example 11(5)) [A]
T3 construct: whole, on cells; also called cynomolgus CD27/Lec8 cell; sugar chain-deficient cynomolgus CD27 cell
Protocol: Binding activity of the anti-sugar chain-deficient CD27 humanized antibodies HV0LV0, HV5LV0 and HV7LV0 for cynomolgus CD27 expression cells was measured by a fluorescent cell staining method (cytometer analysis) in the same manner as in Example 9(1). The cynomolgus CD27/DG44 cell and cynomolgus CD27/Lec8 cell prepared in Example 8 were used as the cynomolgus CD27 expression cells.

Binder | Kd [1] [nM] | koff [1] [s⁻¹] | kon [1] [M⁻¹ s⁻¹] | EC50 (read off the curve) [5] [µg/mL] | further results
B1 | 0.51 | 0.0002 | 400000 | – | –
B2 | 1.07 | 0.00034 | 290000 | – | Kd [2]: 1.1 nM; koff [2]: 0.00082 s⁻¹; kon [2]: 740000 M⁻¹ s⁻¹; EC50 (read off the curve) [3]: ~0.1 µg/mL; EC50 (read off the curve) [4]: ~0.2 µg/mL
B3 | – | – | – | ~0.2 | –
B4 | – | – | – | ~0.2 | –
B5 | – | – | – | ~0.2 | –

— patent US20120093805A1 (Kyowa Kirin, published 2012)
